Results reported in the supplement of paper PMC12042874.
± gives the uncertainty stated by the source.

assay: amyloid nucleation score (Sup35N fusion, yeast selection) (log enrichment); library NNK3; higher = more nucleation; inactive = no reads after selection
Outline: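 Output and input plasmid inserts were sequenced by Illumina after psi-negative yeast carrying Sup35N fused to peptides of 20 random codons had been induced 24 hours with 100 μM copper sulfate and grown 7 days at 30°C on medium lacking adenine and uracil. The nucleation score is the DiMSum log enrichment of output over input reads, centred on the mode score of non-aggregating sequences. Sequences with under 100 input reads were excluded.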

| Substance | amyloid nucleation score |
| --- | --- |
| SGWTPYLCSSSYELFREQRK | -0.084 ± 0.27 |
| LRATNRGVMLNRFVSTMDKS | inactive |
| FSVRIKYI | inactive |
| LVFPPAY | inactive |
| GFHTI | -0.223 ± 0.73 |
| CVTSVVFRFRQHGYTRKGMA | 1.27 ± 0.15 |
| IKLFLIHTTPSFPNTREHDL | inactive |
| EGNCELCRLWYNWGRVAGNK | 0.457 ± 0.2 |
| ALKVYADMIDYLWLRTFMSW | inactive |
| FFPDGDQTYMA | inactive |
| WGSMMSWQVKFVSILNPLPR | inactive |
| LCVIVTAVKGFTVPWHNFFL | inactive |
| VIRGRMMCHGIGAYVVWKSH | inactive |
| ILFGGRNGKWLVEPGLSRVL | 0.84 ± 0.23 |
| YFYWTCSDKRVTIEDVVPLH | inactive |
| NLRNDIYMTSICCE | inactive |
| YFMIDRPALRLVDKKCGSRS | inactive |
| GFYRLVVQGLVVSRGLNWCV | inactive |
| MFLQSGDFPM | inactive |
| SSARAKWSDQQMSSYRA | inactive |
| FHTFSLTSINMVLLSFVVRF | inactive |
| EFGVVVNEFYGDVY | inactive |

| Substance | amyloid nucleation score |
| --- | --- |
| CNNLFFSWLKFMLIGIMGH | inactive |
| TPLTPSGRLGFLTK | 0.7 ± 0.21 |
| TLWFQPDFTHVRRWYGLGLR | inactive |
| LKKYCMYMSSY | inactive |
| FCRPLSCRSIWCHLLPTHLR | inactive |
| GNELQSEFLDFLTCRERGKG | inactive |
| PTSFLVYRMKRWFRASMSSR | inactive |
| RLVRIW | inactive |
| DSFAGVRLGVHASNILIHGQ | inactive |
| EYCKISD | inactive |
| YDTLDTKCAVADKEIFCRIP | inactive |
| SVSRFKWGFKQAQWDKQRRY | inactive |
| SWAVRMAGEYFRNSDMMWCA | inactive |
| RCECVPPNQTRCYQRLASS | inactive |
| KSSIMKGKLTHRGSQWFASQ | inactive |
| VDEDQLRHMWVHSD | inactive |
| CNPLFTYNKPSVDKSV | inactive |
| LTELSETVPVVKRWKCLDYF | -0.807 ± 1.9 |
| DRVSFSITY | inactive |
| CIRVTMSNMMVESWVYGDKP | 0.586 ± 0.15 |
| RAFFLVIAIFNKVEVVSGST | 1.15 ± 0.14 |
| IMEIMVNTWGNVTVRNSWRL | 1.23 ± 0.14 |

| Substance | amyloid nucleation score |
| --- | --- |
| GAMLRVGV | inactive |
| SSGFSKSKYYICVLQFVGVV | inactive |
| QSYVFVVLTPWVSRCGIGLA | inactive |
| FVWLWVVISLNCSNNEFVFN | 2.51 ± 0.061 |
| TVKMRKFRRGTFRDMDIYWR | inactive |
| PWIGVNINSSVLVMVFGGGM | 1.97 ± 0.079 |
| LDWCAYWVSVISRWN | inactive |
| YMLHGTRRLRRETYGGAGRR | inactive |
| YTVLWDLVFWGTPICYVIDN | inactive |
| LLRRLYLTLACPFYLMHTKC | inactive |
| TLAPKYFYFFVKDVFGTSYC | 1.54 ± 0.093 |
| CFWFNHSNRRGQFFH | -0.286 ± 0.77 |
| IVSLSLVMSTDLC | 0.834 ± 0.24 |
| MKFRLTSSRQSDEAHFMWLT | 1.28 ± 0.085 |
| GLSKKKECGFLLARIVVVVV | inactive |
| EVFEWSVRLFSTL | inactive |
| LFVWRSMNRFFQVYVLWSAE | inactive |
| QILGTQAGYYCSREGFANL | inactive |
| VWCYFVQYHGIISLSFIAFR | inactive |
| SQTLQKDLAPSAKLCKIPGV | inactive |
